Source: doi:10.1101/2024.11.06.622200

Target: purified recombinant myristoylated HIV-1 matrix protein (myrMA) (HIV-1 NL4-3)

HIV-1 spacer peptide 2 (SP2), added in vitro
share of sub-images contributing to mature-like MA lattice classes on lipid monolayers, with SP2 (7% mature-like and 7% immature-like without SP2): 47%
